In US20040203101A1 one finds K, k and ki data, which are given here for one substance.

This assay deals with rat nerve growth factor gamma (rat). As to the kind of experiment: kinetic constants for the interaction of BAIT with proteinases; method not described.

Sequence of human BAIT (Brain-Associated Inhibitor of Tissue-Type Plasminogen Activator), mature protein expressed in baculovirus/Sf9 cells and purified (Q99574 19-410): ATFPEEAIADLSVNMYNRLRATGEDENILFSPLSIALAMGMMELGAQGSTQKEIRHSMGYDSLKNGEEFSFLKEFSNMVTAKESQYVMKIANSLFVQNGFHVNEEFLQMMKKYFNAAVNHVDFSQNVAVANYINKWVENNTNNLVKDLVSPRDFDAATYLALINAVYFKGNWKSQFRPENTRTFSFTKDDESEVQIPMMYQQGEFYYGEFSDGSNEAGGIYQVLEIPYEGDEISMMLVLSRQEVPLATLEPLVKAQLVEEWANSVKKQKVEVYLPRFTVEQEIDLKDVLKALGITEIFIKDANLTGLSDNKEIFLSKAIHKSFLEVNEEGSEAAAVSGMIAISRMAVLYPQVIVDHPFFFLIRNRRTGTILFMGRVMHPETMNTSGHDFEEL

Consider “human BAIT (Brain-Associated Inhibitor of Tissue-Type Plasminogen Activator), mature protein expressed in baculovirus/Sf9 cells and purified (from UniProt Q99574 19-410)”, for which the K came to 1.3 µM, the k amounted to 0.0086 s⁻¹ and the ki is 6500 M⁻¹ s⁻¹.
